Experimental data reported in publication PMC12446779, “Structural basis of transglucosylation in dextran dextrinase, a homolog of anomer-inverting GH15 glucoside hydrolases” (The Journal of Biological Chemistry, 2025).
Where a chain is given by its changes, count along the chain named. Names may count otherwise.

B1: Δ382C (DDase-Δ382C) (Gluconobacter oxydans) (protein)
chain: MADNSDEQFVASDYTLLGDATDDPNGMVDMPAGQEPATTNAVPSGVEYNFLAATAGYYTVSFAYQNTANAAAYEQLSINGQNEPGVVEFDQTSGASTGTAYASVYLKAGLNSVELNNQTTDETNGLTPVPEDQLQASPAFQIGTSTVAAGASPSQETSAQSLAISNQTDMQAFVQGESMAPKQQWTFGPSLSELHVGSNDELNQLDFNAVWFRNVTPGQQAETYSPYFKSNESFDANGVLHVNYGAYSPTGQALPVQIQATYANVPNENLIVENLSLTNQNASGTQPLVWDVMNATGINPGEVSSTTWDPTHNAWIVTEDQGSGKSPLYLAIGDYQVSNSTHAAGVDGVNVRGSYSLSSGASGNPSLNAPDQGVIGGFENNGTMVGSSSGASGTNLAVGTTDSDVTLNPGQTVDLSYYLSTATSLSQLDANLDKYTNTVGSTTSSTPMTDATGASAASSWTQQTATAWDDTLNQAYNLAGSTETSGQAATAASGQTLDPTSSAAAQSAYRSSLINILQAQSPEYGSFMASTNPSYEYKVWVRDSAATAIGLDDAGLTQPADKFWRWMASVEQNGMNATYSGNASGTFSTNYGEFDQNLPIGFVAPENDSQGLFLIGSYRHYEQMLSEGQTQQAQSFISDPTVRQALVNSANWIQENIGSNGLGPADYSIWEDMYGYHTFTQVTYAEGLNAASQLASAMGEGNQAQTWATGAETIKDAILRPTTASTPGLWNAQEGHFVEMINPNGTIDNTIDADTNIAAVFGLVSPTSIYATENAQAVENALTQDNFGLSRYQNETFYQSSQWSPGGTYEAQGISPSWPQMTAYDSIVSMDSGNTTQANNDLSWIEQSYDNGGTPPGESYDWARGQPIESTSSEPVTASWYVQDLLNSTGQTSTLMPAITGQ
notes: C-terminal truncation Met1-Ser902 (domains N1, N2, HLH, A); N-terminal His6 tag (…) kept; E. coli BL21-CodonPlus(DE3)-RIL; 921 residues with tag; dimer 195,604 Da
B2: Δ382C (DDase-Δ382C) (Gluconobacter oxydans; E671Q) (protein)
chain: B1 chain with E671Q
notes: as for B1

Substrate: OC[C@H]1O[C@H](F)[C@H](O)[C@@H](O)[C@@H]1O
Assay: fluoride release, colorimetric (Alfusone), Michaelis-Menten fit
Type: biochemical, Gluconobacter oxydans
Conditions: 130 mM sodium acetate pH 4.2, 35 °C, 0.2 mg/ml BSA
From the text: fluoride release, colorimetric (Alfusone), Michaelis-Menten fit on Δ382C (DDase-Δ382C)

Protein	Km [mM]	kcat [s⁻¹]	kcat/Km [M⁻¹ s⁻¹]
B1	40 ± 4	15 ± 1	380
B2	1.5 ± 0.1	0.025 ± 0.002	17
